Source: patent US20060253917A1 (published 2006)

How the values were obtained:
OsFDRMADS8 aa 69-233 = target: T1, OsFDRMADS8 aa 69-233 (Oryza sativa, UniProt A2Z9Q7 69-233); assay: Y2H; input trait library
T1 construct: prey, AD fusion; also called PN20698
T1 sequence: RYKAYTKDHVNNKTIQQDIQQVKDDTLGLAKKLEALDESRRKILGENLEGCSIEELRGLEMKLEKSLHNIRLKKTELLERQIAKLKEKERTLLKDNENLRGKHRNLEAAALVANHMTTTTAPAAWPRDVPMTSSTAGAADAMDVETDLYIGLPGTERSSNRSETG
Summary of the method: (§1)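 A rice prey library, either the input trait or the output trait library, was screened with a bait clone encoding a defined amino-acid fragment of a rice protein. Screening used an automated, high-throughput yeast two-hybrid assay provided by Myriad Genetics Inc. (Salt Lake City, Utah). Retrieved prey clones had their encoding sequences compared by BLAST against databases so the interacting proteins could be identified.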

OsMADS1 aa 95-257 = target: T2, OsMADS1 aa 95-257 (Oryza sativa, UniProt A2XDY1 95-257); assay: Y2H; input trait library
T2 construct: prey, AD fusion; also called PN19788
T2 sequence: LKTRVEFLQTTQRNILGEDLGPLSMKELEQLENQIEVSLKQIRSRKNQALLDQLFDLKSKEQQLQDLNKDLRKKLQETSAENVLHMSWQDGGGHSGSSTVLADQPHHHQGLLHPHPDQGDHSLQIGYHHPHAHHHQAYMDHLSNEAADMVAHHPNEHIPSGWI
Summary of the method: as §1

OsFDRMADS6 aa 100-246 = target: T3, OsFDRMADS6 aa 100-246 (Oryza sativa, UniProt P0C5B1 100-246); assay: Y2H; output trait library
T3 construct: prey, AD fusion; also called PN19766
T3 sequence: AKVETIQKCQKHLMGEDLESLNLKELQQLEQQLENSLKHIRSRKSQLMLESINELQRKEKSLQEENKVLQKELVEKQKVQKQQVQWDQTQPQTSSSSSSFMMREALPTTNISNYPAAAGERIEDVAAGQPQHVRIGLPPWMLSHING
Summary of the method: as §1

OsMADS8 aa 127-248 = target: T4, OsMADS8 aa 127-248 (Oryza sativa, UniProt Q9SAR1 127-248); assay: Y2H; output trait library
T4 construct: prey, AD fusion; also called PN20778
T4 sequence: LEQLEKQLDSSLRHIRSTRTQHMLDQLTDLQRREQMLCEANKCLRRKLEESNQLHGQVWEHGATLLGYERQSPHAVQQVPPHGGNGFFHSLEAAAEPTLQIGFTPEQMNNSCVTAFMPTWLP
Summary of the method: as §1

OsFDRMADS8 aa 94-230 = target: T5, OsFDRMADS8 aa 94-230 (Oryza sativa, UniProt A2Z9Q7 94-230); assay: Y2H; output trait library
T5 construct: prey, AD fusion; also called PN20698
T5 sequence: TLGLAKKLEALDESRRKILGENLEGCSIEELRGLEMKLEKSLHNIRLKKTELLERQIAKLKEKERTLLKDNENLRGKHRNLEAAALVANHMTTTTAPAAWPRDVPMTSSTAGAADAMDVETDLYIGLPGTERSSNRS
Summary of the method: as §1

OsRAP1B aa 30-180 = target: T6, OsRAP1B aa 30-180 (Oryza sativa, UniProt Q10CQ1 30-180); assay: Y2H; input trait library
T6 construct: bait, Gal4 DBD fusion; also called PN20232
T6 sequence: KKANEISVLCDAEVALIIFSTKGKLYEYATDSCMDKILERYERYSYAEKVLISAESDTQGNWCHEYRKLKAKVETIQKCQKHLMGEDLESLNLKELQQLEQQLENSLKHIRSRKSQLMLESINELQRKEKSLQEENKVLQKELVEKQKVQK
Summary of the method: as §1

OsMADS5 aa 108-225 = target: T7, OsMADS5 aa 108-225 (Oryza sativa, UniProt A2Y9P0 108-225); assay: Y2H; output trait library
T7 construct: prey, AD fusion; also called PN20770
T7 sequence: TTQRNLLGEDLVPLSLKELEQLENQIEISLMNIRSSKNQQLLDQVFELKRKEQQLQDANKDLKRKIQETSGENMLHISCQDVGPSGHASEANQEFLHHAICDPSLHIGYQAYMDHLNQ
Summary of the method: as §1

OsMADS8 aa 79-248 = target: T8, OsMADS8 aa 79-248 (Oryza sativa, UniProt Q9SAR1 79-248); assay: Y2H; output trait library
T8 construct: prey, AD fusion; also called PN20778
T8 sequence: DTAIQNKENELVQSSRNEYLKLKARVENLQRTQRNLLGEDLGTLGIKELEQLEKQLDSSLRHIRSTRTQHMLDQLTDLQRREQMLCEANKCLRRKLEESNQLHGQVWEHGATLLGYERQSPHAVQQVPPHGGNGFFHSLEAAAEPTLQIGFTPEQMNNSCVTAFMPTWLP
Summary of the method: as §1

OsMADS45 aa 69-249 = target: T9, OsMADS45 aa 69-249 (Oryza sativa, UniProt P0C5B0 69-249); assay: Y2H; output trait library
T9 construct: prey, AD fusion; also called PN20231
T9 sequence: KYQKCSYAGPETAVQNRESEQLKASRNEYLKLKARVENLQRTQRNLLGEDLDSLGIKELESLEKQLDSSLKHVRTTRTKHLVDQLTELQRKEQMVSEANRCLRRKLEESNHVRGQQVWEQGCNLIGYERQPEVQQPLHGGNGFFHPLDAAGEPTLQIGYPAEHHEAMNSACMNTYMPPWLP
Summary of the method: as §1

OsMADS1 aa 73-239 = target: T10, OsMADS1 aa 73-239 (Oryza sativa, UniProt A2XDY1 73-239); assay: Y2H; output trait library
T10 construct: prey, AD fusion; also called PN19788
T10 sequence: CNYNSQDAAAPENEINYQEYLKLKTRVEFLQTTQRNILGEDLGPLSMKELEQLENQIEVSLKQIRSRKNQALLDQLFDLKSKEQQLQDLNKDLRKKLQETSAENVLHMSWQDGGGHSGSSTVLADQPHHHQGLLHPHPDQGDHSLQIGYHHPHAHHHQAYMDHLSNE
Summary of the method: as §1

OsBAA81880 aa 24-203 = target: T11, OsBAA81880 aa 24-203 (Oryza sativa, UniProt Q9XJ66 24-203); assay: Y2H; output trait library
T11 construct: prey, AD fusion; also called PN20837
Summary of the method: as §1

OsMADS45 aa 98-249 = target: T12, OsMADS45 aa 98-249 (Oryza sativa, UniProt P0C5B0 98-249); assay: Y2H; output trait library
T12 construct: prey, AD fusion; also called PN20231
T12 sequence: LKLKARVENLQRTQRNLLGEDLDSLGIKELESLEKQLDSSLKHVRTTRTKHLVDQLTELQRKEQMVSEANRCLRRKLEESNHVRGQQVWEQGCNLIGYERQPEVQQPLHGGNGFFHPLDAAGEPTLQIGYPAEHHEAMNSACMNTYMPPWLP
Summary of the method: as §1

OsBAA81880 aa 2-168 = target: T13, OsBAA81880 aa 2-168 (Oryza sativa, UniProt Q9XJ66 2-168); assay: Y2H; output trait library
T13 construct: prey, AD fusion; also called PN20837; O. sativa MADS box-like protein
Summary of the method: as §1

OsMADS1 aa 74-172 = target: T14, OsMADS1 aa 74-172 (Oryza sativa, UniProt A2XDY1 74-172); assay: Y2H; input trait library
T14 construct: prey, AD fusion; also called PN19788
T14 sequence: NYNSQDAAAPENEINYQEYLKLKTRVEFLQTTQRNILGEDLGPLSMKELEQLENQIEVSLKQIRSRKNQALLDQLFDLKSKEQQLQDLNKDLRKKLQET
Summary of the method: as §1

Measured: binding result

T11 sequence (Q9XJ66 24-203): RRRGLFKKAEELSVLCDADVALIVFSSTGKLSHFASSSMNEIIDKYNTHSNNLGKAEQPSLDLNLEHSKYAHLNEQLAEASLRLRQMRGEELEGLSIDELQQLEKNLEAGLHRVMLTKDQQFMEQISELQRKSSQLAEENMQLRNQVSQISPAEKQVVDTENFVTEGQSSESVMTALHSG
T13 sequence (Q9XJ66 2-168): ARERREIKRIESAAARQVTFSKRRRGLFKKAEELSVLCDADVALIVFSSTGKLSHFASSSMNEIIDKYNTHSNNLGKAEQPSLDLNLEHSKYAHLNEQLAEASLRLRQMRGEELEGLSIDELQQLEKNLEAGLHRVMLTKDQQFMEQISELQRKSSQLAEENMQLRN

B1: OsRAP1B aa 100-247 (other)
chain: AKVETIQKCQKHLMGEDLESLNLKELQQLEQQLENSLKHIRSRKSQLMLESINELQRKEKSLQEENKVLQKELVEKQKVQKQQLQWDQTQPQTISSSSSFMMREALPTTNISNYPAAAGERIEDVPAGQPQHVRIGLPPWMLSHING
notes: bait, Gal4 DBD fusion; also called PN20232
binds: OsFDRMADS8 aa 69-233 | OsMADS1 aa 95-257 | OsFDRMADS6 aa 100-246 | OsMADS8 aa 127-248 | OsFDRMADS8 aa 94-230

B2: OsMADS5 aa 106-225 (other)
chain: LQTTQRNLLGEDLVPLSLKELEQLENQIEISLMNIRSSKNQQLLDQVFELKRKEQQLQDANKDLKRKIQETSGENMLHISCQDVGPSGHASEANQEFLHHAICDPSLHIGYQAYMDHLNQ
notes: prey, AD fusion; also called PN20770
binds: OsRAP1B aa 30-180

B3: OsRAP1B aa 125-235 (other)
chain: LQQLEQQLENSLKHIRSRKSQLMLESINELQRKEKSLQEENKVLQKELVEKQKVQKQQLQWDQTQPQTISSSSSFMMREALPTTNISNYPAAAGERIEDVPAGQPQHVRIG
notes: as for B1
binds: OsMADS5 aa 108-225 | OsMADS8 aa 79-248 | OsMADS45 aa 69-249 | OsMADS1 aa 73-239 | OsBAA81880 aa 24-203 | OsMADS45 aa 98-249 | OsBAA81880 aa 2-168

B4: OsRAP1B aa 65-200 (other)
chain: KILERYERYSYAEKVLISAESDTQGNWCHEYRKLKAKVETIQKCQKHLMGEDLESLNLKELQQLEQQLENSLKHIRSRKSQLMLESINELQRKEKSLQEENKVLQKELVEKQKVQKQQLQWDQTQPQTISSSSSFM
notes: as for B1
binds: OsMADS1 aa 74-172
